In patent US20230212587A1, “Mutant Hydroxyphenylpyruvate Dioxygenase Polypeptide, Encoding Gene Thereof and Use Therefor” (Beijing Dabeinong Biotechnology Co., Ltd., priority 2019, published 2023):
Positions count from the first letter of the chain named. Names may count otherwise.

B1: BdHPPD-02: native Brachypodium distachyon HPPD, SEQ ID NO: 45 (protein)
chain: MPPPATTAAPAAAAVTPEHARPPRRVARVNPRSDRFSALSFHHVELWCADAASAAGRFSFALGAPPAARSDLSTGNSAHASILLRSGSLAFLFTAPYAPSPASDSAASIPSFSASAARQFTADHGGLAVRAVALRVSSASDAFHASVSAGARPSFPPADLGQGFALAEVELYGDVVLRFISHPDENTEIPFLPGFESVSNPGASTYGLTRFDHVVGNVPSLAPVAAYIAGFTGFHEFAEFTAEDVGTADSGLNSVVLANNSERVLLPLNEPVHGTKRRSQIQTYLDHHGGPGVQHIALASDDVLRTLREMRARSAMGGFEFLAPPPPNYYDGVRRRAGDVLSEAQIKECQELGVLVDRDDQGVLLQIFTKPVGDRPTLFLEMIQRIGCMEKDEIGQEQQKGGCGGFGKGNFSELFRSIEEYEKSLEAKQSAVVQES
modifications: Brachypodium distachyon; BdHPPD Amino Acid Sequence
B2: BdHPPDm-F372A-02: Brachypodium distachyon HPPD mutant F372A, SEQ ID NO: 48 (protein)
chain: B1 chain with F368A
modifications: BdHPPDm-F372A Amino Acid Sequence
B3: HvHPPD-02: native Hordeum vulgare HPPD, SEQ ID NO: 51 (protein)
chain: MPPTPTTPAATGAAAAVTPEHARPHRMVRFNPRSDRFHTLSFHHVEFWCADAASAAGRFAFALGAPLAARSDLSTGNSAHASQLLRSGSLAFLFTAPYANGCDAATASLPSFSADAARRFSADHGIAVRSVALRVADAAEAFRASRRRGARPAFAPVDLGRGFAFAEVELYGDVVLRFVSHPDGTDVPFLPGFEGVTNPDAVDYGLTRFDHVVGNVPELAPAAAYIAGFTGFHEFAEFTAEDVGTTESGLNSVVLANNSEGVLLPLNEPVHGTKRRSQIQTFLEHHGGPGVQHIAVASSDVLRTLRKMRARSAMGGFDFLPPPLPKYYEGVRRLAGDVLSEAQIKECQELGVLVDRDDQGVLLQIFTKPVGDRPTLFLEMIQRIGCMEKDERGEEYQKGGCGGFGKGNFSELFKSIEDYEKSLEAKQSAAVQGS
modifications: Hordeum vulgare; HvHPPD Amino Acid Sequence

Tested on: Arabidopsis thaliana T1 plants
Assay: Topramezone tolerance of transgenic Arabidopsis thaliana T1 plants (pesticide damage grade by bleached leaf area, score, resistance evaluation)
Format: in vivo
Conditions: HPPDs from different species; number of plants (of 16) in this grade; topramezone 25 g ai/ha (1x), 7 DAT
Method in brief: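 Eighteen days after sowing, wild-type and HPPD-transgenic T1 Arabidopsis receive a topramezone spray at 1×, 2× or 4× field rate (25–100 g ai/ha) or water. Seven days later each plant is graded by its proportion of bleached leaf area.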

Molecule | Classification and statistics of pesticide damage grade Grade 0 | Classification and statistics of pesticide damage grade Grade 1 | Classification and statistics of pesticide damage grade Grade 2 | Classification and statistics of pesticide damage grade Grade 3
B1 | 0 | 0 | 0 | 16
B2 | 16 | 0 | 0 | 0
B3 | 0 | 0 | 0 | 16

Same assay, conditions: HPPDs from different species; number of plants (of 16) in this grade; topramezone 100 g ai/ha (4x), 7 DAT

Molecule | Classification and statistics of pesticide damage grade Grade 0 | Classification and statistics of pesticide damage grade Grade 1 | Classification and statistics of pesticide damage grade Grade 2 | Classification and statistics of pesticide damage grade Grade 3
B1 | 0 | 0 | 0 | 16
B2 | 6 | 10 | 0 | 0
B3 | 0 | 0 | 0 | 16

Same assay, conditions: HPPDs from different species; score for pesticide damage 0-100; topramezone 25 g ai/ha (1x), 7 DAT

Molecule | Scores
B1 | 100
B2 | 0
B3 | 100

Same assay, conditions: HPPDs from different species; score for pesticide damage 0-100; topramezone 100 g ai/ha (4x), 7 DAT

Molecule | Scores
B1 | 100
B2 | 21
B3 | 100

Same assay, conditions: HPPDs from different species; topramezone 25 g ai/ha (1x), 7 DAT

Molecule | Resistance evaluation
B1 | non-resistant (non-resistant plants (scores 68-100))
B2 | highly resistant (highly resistant plants (scores 0-15))
B3 | non-resistant (non-resistant plants (scores 68-100))

Same assay, conditions: HPPDs from different species; topramezone 100 g ai/ha (4x), 7 DAT

Molecule | Resistance evaluation
B1 | non-resistant (non-resistant plants (scores 68-100))
B2 | moderately resistant (moderately resistant plants (scores 16-33))
B3 | non-resistant (non-resistant plants (scores 68-100))
